Sequences and labels used below:
B1: ceTIR-1^TIR (residues 703-872) [C. elegans] / itself (parent)
chain: MLSKQIDVFISYRRSTGNQLASLIKVLLQLRGYRVFIDVDKLYAGKFDSSLLKNIQAAKHFILVLTPNSLDRLLNDDNCEDWVHKELKCAFEHQKNIIPIFDTAFEFPTKEDQIPNDIRMITKYNGVKWVHDYQDACMAKVVRFITGELNRTTPTTKEMPSISRKTTQQR

The assay covers variants of B1. Put plainly: gel filtration (size exclusion chromatography). Conditions: with itself. Background: Size exclusion chromatography separates by hydrodynamic size, large species first.
Regarding MLSKQIDVFISYRRSTGNQLASLIKVHLQLRGYRVFIDVDKLYAGKFDSSLLKNIQAAKHFILVLTPNSLDRLLNDDNCEDWVHKELKCAFEHQKNIIPIFDTAFEFPTKEDQIPNDIRMITKYNGVKWVHDYQDACMAKVVRFITGELNRTTPTTKEMPSISRKTTQQR [chain 1 L27H], the elution volume was determined as 17.2 mL.
